Test results reported in the supplement of paper PMC10567573.

B1: FAM46D (parent)
chain: LELKFVSSLRRQFEFSVDSFQIVL

Variants of: B1
Assay: protein stability index of a GFP-peptide fusion (GPS, HEK-293T) (PSI 1-6); higher = more stable
Conditions: c terminus: a fixed tail appended
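Further: lentivirally expressed fusions sorted by FACS into six bins by GFP to DsRed ratio, PSI derived from sequencing read proportions per bin multiplied by bin number.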

First: LELKYVSSLRRQFEFSVDSFQIVL
Second: LELKSVSSLRRQFEFSVDSFQIVL
The protein stability index of the first is higher: 3.22 for the first, 3.1 for the second.

First: LELKNVSSLRRQFEFSVDSFQIVL
Second: LELKMVSSLRRQFEFSVDSFQIVL
The protein stability index of the first is lower: 2.37 for the first, 4.22 for the second.

Going from LELKLVSSLRRQFEFSVDSFQIVL to LELKGVSSLRRQFEFSVDSFQIVL, the protein stability index rises from 1.96 to 2.6.

Going from LELKIVSSLRRQFEFSVDSFQIVL to LELKTVSSLRRQFEFSVDSFQIVL, the protein stability index falls from 3.77 to 2.8.

Compared with LELKKVSSLRRQFEFSVDSFQIVL, LELKQVSSLRRQFEFSVDSFQIVL is higher in protein stability index: 1.64 for the first, 2.59 for the second.

Going from LELKPVSSLRRQFEFSVDSFQIVL to LELKVVSSLRRQFEFSVDSFQIVL, the protein stability index rises from 3.01 to 3.54.

First: LELKRVSSLRRQFEFSVDSFQIVL
Second: LELKFVSSQRRQFEFSVDSFQIVL
The protein stability index of the first is lower: 2.39 for the first, 3.29 for the second.

First: LELKFVSSERRQFEFSVDSFQIVL
Second: LELKFVSSRRRQFEFSVDSFQIVL
The protein stability index of the first is lower: 1.82 for the first, 3.73 for the second.

First: LELKFVSSVRRQFEFSVDSFQIVL
Second: LELKFVSSWRRQFEFSVDSFQIVL
The protein stability index of the first is higher: 4.14 for the first, 3.47 for the second.

First: LELKFVSSHRRQFEFSVDSFQIVL
Second: LELKFVSSIRRQFEFSVDSFQIVL
The protein stability index of the first is higher: 2.9 for the first, 2.75 for the second.

Going from LELKFVSSPRRQFEFSVDSFQIVL to LELKFVSSCRRQFEFSVDSFQIVL, the protein stability index rises from 3.04 to 3.2.

Compared with LELKFVSSTRRQFEFSVDSFQIVL, LELKFVSSSRRQFEFSVDSFQIVL is higher in protein stability index: 2.99 for the first, 3.64 for the second.

First: LELKFVSSARRQFEFSVDSFQIVL
Second: LELKFVSSKRRQFEFSVDSFQIVL
The protein stability index of the first is higher: 2.93 for the first, 2.41 for the second.

First: LELKFVSSYRRQFEFSVDSFQIVL
Second: LELKFVSSDRRQFEFSVDSFQIVL
The protein stability index of the first is lower: 2.01 for the first, 3.93 for the second.

Going from LELKFVSSFRRQFEFSVDSFQIVL to LELKFVSSNRRQFEFSVDSFQIVL, the protein stability index falls from 2.95 to 2.64.

First: LELKFVSSLTRQFEFSVDSFQIVL
Second: LELKFVSSLFRQFEFSVDSFQIVL
The protein stability index of the first is higher: 2.83 for the first, 2.79 for the second.

First: LELKFVSSLSRQFEFSVDSFQIVL
Second: LELKFVSSLHRQFEFSVDSFQIVL
The protein stability index of the first is higher: 3.46 for the first, 2.93 for the second.

Compared with LELKFVSSLLRQFEFSVDSFQIVL, LELKFVSSLMRQFEFSVDSFQIVL is lower in protein stability index: 3.46 for the first, 2.72 for the second.

Going from LELKFVSSLPRQFEFSVDSFQIVL to LELKFVSSLCRQFEFSVDSFQIVL, the protein stability index falls from 3.23 to 2.67.

First: LELKFVSSLARQFEFSVDSFQIVL
Second: LELKFVSSLNRQFEFSVDSFQIVL
The protein stability index of the first is higher: 3 for the first, 2.23 for the second.

First: LELKFVSSLIRQFEFSVDSFQIVL
Second: LELKFVWSLRRQFEFSVDSFQIVL
The protein stability index of the first is higher: 3.38 for the first, 2.37 for the second.

Going from LELKFVYSLRRQFEFSVDSFQIVL to LELKFVESLRRQFEFSVDSFQIVL, the protein stability index rises from 3.11 to 4.25.

Compared with LELKFVKSLRRQFEFSVDSFQIVL, LELKFVASLRRQFEFSVDSFQIVL is higher in protein stability index: 2.57 for the first, 3.21 for the second.

Going from LELKFVPSLRRQFEFSVDSFQIVL to LELKFVISLRRQFEFSVDSFQIVL, the protein stability index rises from 2.67 to 2.85.

Going from LELKFVNSLRRQFEFSVDSFQIVL to LELKFVTSLRRQFEFSVDSFQIVL, the protein stability index falls from 1.88 to 1.5.

First: LELKFVHSLRRQFEFSVDSFQIVL
Second: LELKFVRSLRRQFEFSVDSFQIVL
The protein stability index of the first is higher: 3.18 for the first, 2.91 for the second.

Going from LELKFVCSLRRQFEFSVDSFQIVL to LELKFVFSLRRQFEFSVDSFQIVL, the protein stability index rises from 3.17 to 4.35.

First: LELKFVGSLRRQFEFSVDSFQIVL
Second: LELKFVQSLRRQFEFSVDSFQIVL
The protein stability index of the first is higher: 2.76 for the first, 2.43 for the second.

Compared with LELKFVDSLRRQFEFSVDSFQIVL, LELKFVMSLRRQFEFSVDSFQIVL is lower in protein stability index: 3.25 for the first, 3.02 for the second.

Compared with LELKFTSSLRRQFEFSVDSFQIVL, LELKFHSSLRRQFEFSVDSFQIVL is lower in protein stability index: 3.31 for the first, 2.9 for the second.

First: LELKFASSLRRQFEFSVDSFQIVL
Second: LELKFNSSLRRQFEFSVDSFQIVL
The protein stability index of the first is lower: 2.77 for the first, 4.62 for the second.

Going from LELKFSSSLRRQFEFSVDSFQIVL to LELKFGSSLRRQFEFSVDSFQIVL, the protein stability index rises from 2.49 to 2.81.

First: LELKFRSSLRRQFEFSVDSFQIVL
Second: LELKFQSSLRRQFEFSVDSFQIVL
The protein stability index of the first is higher: 3.15 for the first, 1.56 for the second.

Going from LELKFESSLRRQFEFSVDSFQIVL to LELKFFSSLRRQFEFSVDSFQIVL, the protein stability index falls from 2.75 to 2.38.

First: LELKFKSSLRRQFEFSVDSFQIVL
Second: LELKFMSSLRRQFEFSVDSFQIVL
The protein stability index of the first is higher: 3.51 for the first, 2.61 for the second.

Going from LELKFLSSLRRQFEFSVDSFQIVL to LELKFWSSLRRQFEFSVDSFQIVL, the protein stability index rises from 2.81 to 4.

Going from LELKFYSSLRRQFEFSVDSFQIVL to LELKFISSLRRQFEFSVDSFQIVL, the protein stability index falls from 3.16 to 2.95.

Going from LELKFCSSLRRQFEFSVDSFQIVL to LELKFDSSLRRQFEFSVDSFQIVL, the protein stability index rises from 2.22 to 2.73.

Compared with LELKFPSSLRRQFEFSVDSFQIVL, LELKFVSHLRRQFEFSVDSFQIVL is higher in protein stability index: 2.08 for the first, 3.22 for the second.

Going from LELKFVSQLRRQFEFSVDSFQIVL to LELKFVSFLRRQFEFSVDSFQIVL, the protein stability index falls from 2.95 to 1.95.

Compared with LELKFVSYLRRQFEFSVDSFQIVL, LELKFVSWLRRQFEFSVDSFQIVL is higher in protein stability index: 2.44 for the first, 2.98 for the second.

Going from LELKFVSNLRRQFEFSVDSFQIVL to LELKFVSLLRRQFEFSVDSFQIVL, the protein stability index rises from 2.92 to 3.46.

First: LELKFVSDLRRQFEFSVDSFQIVL
Second: LELKFVSALRRQFEFSVDSFQIVL
The protein stability index of the first is higher: 2.97 for the first, 2.57 for the second.

Going from LELKFVSCLRRQFEFSVDSFQIVL to LELKFVSTLRRQFEFSVDSFQIVL, the protein stability index rises from 2.96 to 3.

Compared with LELKFVSKLRRQFEFSVDSFQIVL, LELKFVSMLRRQFEFSVDSFQIVL is higher in protein stability index: 2.05 for the first, 3.34 for the second.

Compared with LELKFVSVLRRQFEFSVDSFQIVL, LELKFVSRLRRQFEFSVDSFQIVL is higher in protein stability index: 1.71 for the first, 2.15 for the second.

First: LELKFVSPLRRQFEFSVDSFQIVL
Second: LELKFVSGLRRQFEFSVDSFQIVL
The protein stability index of the first is lower: 2.69 for the first, 2.81 for the second.
